Measurements from patent publication US10919943B2, “Mutant proteins enabling agrochemical control of plant gene expression” (The Regents of the University of California, priority 2016, dated 2021).

Molecular target: T1, PYR1*^-MANDI (Arabidopsis thaliana, UniProt O49686, A160V/F108A/F159V/K59R/M158I/S122G/T162D/V81I/Y58H)
T1 construct: expressed in transfected cells; host or cells: S. cerevisiae strain MAV99 (selection)
T1 sequence (O49686 1-191 Y58H/K59R/V81I/F108A/S122G/M158I/F159V/A160V/T162D): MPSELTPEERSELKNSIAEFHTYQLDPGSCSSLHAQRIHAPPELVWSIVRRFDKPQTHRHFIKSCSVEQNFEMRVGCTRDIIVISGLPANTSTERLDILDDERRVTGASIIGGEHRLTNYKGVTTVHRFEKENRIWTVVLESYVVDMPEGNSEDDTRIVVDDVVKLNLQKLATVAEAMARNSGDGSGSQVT
T1 sequence (Q9CAJ0 4-511 R199A/D204A/S322D/V393R/R505A partner): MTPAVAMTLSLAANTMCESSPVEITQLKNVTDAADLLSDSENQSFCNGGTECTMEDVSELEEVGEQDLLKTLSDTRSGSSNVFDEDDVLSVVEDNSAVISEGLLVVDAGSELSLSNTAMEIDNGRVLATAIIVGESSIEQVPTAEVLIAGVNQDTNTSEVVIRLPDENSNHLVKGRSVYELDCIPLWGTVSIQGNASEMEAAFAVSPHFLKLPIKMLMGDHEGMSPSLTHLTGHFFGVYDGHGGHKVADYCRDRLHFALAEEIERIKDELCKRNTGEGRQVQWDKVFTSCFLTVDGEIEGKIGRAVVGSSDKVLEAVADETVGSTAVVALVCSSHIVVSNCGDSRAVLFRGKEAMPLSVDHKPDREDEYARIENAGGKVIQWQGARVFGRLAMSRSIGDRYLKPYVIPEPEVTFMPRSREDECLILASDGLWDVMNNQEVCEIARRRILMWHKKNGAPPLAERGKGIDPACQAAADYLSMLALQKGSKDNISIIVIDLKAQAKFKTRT
Test: Yeast two hybrid, mandipropamid-induced interaction of HAB1 variants with pBD-PYR1*^-MANDI
Assay type: cell-based
Details: FIG. 6
Excerpt: To investigate the effects of overexpressing HAB1^!-2 in Arabidopsis, we used Agrobacterium mediated transformation to generate 35S::GFP-HAB1^!-2 transgenic plants. HAB1^!-2 was cloned from pACT-HAB1^!-2 into pEGAD, a binary vector suitable for plant transformation, generating a 35S-driven GFP-HAB1^!-2 fusion protein. The clone was transformed into Agrobacterium and the floral dip method used to transform Arabidopsis. After selection of T0 seed on soil containing glufosinate, several T1 seedlings were identified. […] As an alternate strategy, we eliminated HAB1's catalytic activity by introducing a mutation in a conserved metal-ion binding residue (D204), which is homologous to D131A mutation in ABI1, previously shown to eliminate phosphatase activity without disrupting wild type receptor-ABI1 interactions (Liang et al., 2011). We used QuickChange mutagenesis to introduce the D204A mutation into pACT-HAB1^!-2, generating pACT-HAB1^!-3. When tested for mandipropamid induced interactions with pBD-PYR1*^-MANDI, HAB1^!-3 is ˜10-fold less sensitive to mandipropamid relative to HAB1^!-2 (FIG. 5).
D204 is located within HAB1's catalytic active site and binds to one of 3 catalytic Mg^++ ions that participate in catalysis. […] It is likely that disruptions to active site structure introduced by D204A destabilize the PYR1*^-MANDI/HAB1^!-3 interaction relative to HAB1^!-2. We reasoned that suppressor mutations in other HAB1 interface or active site residues could restore sensitivity by strengthening interactions with PYR1*^-MANDI. To identify such suppressors, we mutagenized the pACT-HAB1^!-3 template using NNK mutagenesis in 28 residues located with at the PYR1 binding interface. The residues targeted were: R199, S200, E201, E203, D243, G244, H245, G246, G247, S322, E323, T324, D346, K365, K381, 1383, Q384, W385, Q386, R389, F391, G392, Y404, S431, G433, D436, D492 and N394. The pACT-HAB1^!-3 template was mutagenized in 28 separate NNK mutagenesis reactions using the QuickChange protocol. Mini-libraries, each containing ˜1000 clones, were made for each NNK reaction and plasmid DNA for the 28 mutations prepared, pooled, and then transformed into S. cerevisiae strain MAV99 co-transformed with pBD-PYR1*^-MANDI, and then plated onto selective SD(-Leu,-Trp,-Ura) agar media supplemented with 500 nM mandipropamid. […] S322D and R199A were combined using the Lightning Multi-site Mutagenesis™ (Agilent, USA) method, and the resultant pentuple mutant tested in combination with pBD-PYR1*^-MANDI for sensitivity to mandipropamid using β-galactosidase assays.

B1: HAB1*: catalytically inactive orthogonal pentuple HAB1 mutant (protein, listed as Arabidopsis thaliana)
chain: T1 sequence (Q9CAJ0 4-511 R199A/D204A/S322D/V393R/R505A partner)
mandipropamid sensitivity for binding to pBD-PYR1*^-MANDI: nM sensitivity
